Test results taken from paper PMC5006159, “Structural basis for early-onset neurological disorders caused by mutations in human selenocysteine synthase” (Scientific Reports, 2016).
Residue numbers refer to the chain shown, from its start. Names may count otherwise.

Legend:
[1] = target: the molecule itself; test: SEC; S200 SEC of the soluble, purified His-tagged SepSecS samples; tetramer peak at ~70 min, 'early' peak at ~55 min; self-association
[2] = target: the molecule itself; test: crystal structure; holo T325S, sitting drop at +12 °C, lithium citrate and PEG 3,350; orthorhombic, half of the tetramer in the asymmetric unit
[3] = target: the molecule itself; test: crystal structure; binary complexes with human tRNASec, sitting drop at +12 °C, sodium cacodylate, lithium citrate, PEG 3,350; trigonal, two SepSecS dimers and one tRNASec in the asymmetric unit

B1: human O-phosphoseryl-tRNASec:selenocysteinyl-tRNASec synthase (SepSecS), wild type (enzyme)
chain: MNRESFAAGERLVSPAYVRQGCEARRSHEHLIRLLLEKGKCPENGWDESTLELFLHELAIMDSNNFLGNCGVGEREGRVASALVARRHYRFIHGIGRSGDISAVQPKAAGSSLLNKITNSLVLDIIKLAGVHTVANCFVVPMATGMSLTLCFLTLRHKRPKAKYIIWPRIDQKSCFKSMITAGFEPVVIENVLEGDELRTDLKAVEAKVQELGPDCILCIHSTTSCFAPRVPDRLEELAVICANYDIPHIVNNAYGVQSSKCMHLIQQGARVGRIDAFVQSLDKNFMVPVGGAIIAGFNDSFIQEISKMYPGRASASPSLDVLITLLSLGSNGYKKLLKERKEMFSYLSNQIKKLSEAYNERLLHTPHNPISLAMTLKTLDEHRDKAVTQLGSMLFTRQVSGARVVPLGSMQTVSGYTFRGFMSHTNNYPCAYLNAASAIGMKMQDVDLFIKRLDRCLKAVRKERSKESDDNYDKTEDVDIEEMALKLDNVLLDTYQDASS
notes: human SepSecS (SEPSECS) cloned into pQE80 with an N-terminal His-tag; PLP cofactor covalently attached to Lys284; Band at ~60 kDa on SDS-PAGE; also called WT SepSecS; WT; not shown: His6, N-terminal, kept
[1]
  stoichiometry N: 4

B2: human SepSecS Thr325Ser variant (enzyme)
chain: B1 chain with T325S
notes: human SepSecS (SEPSECS) in pQE80 with an N-terminal His-tag, pathogenic variant made by site-directed mutagenesis; Mutation found in patients (PCH2D); also called T325S; T325S70; source: E. coli SoluBL21(DE3), purified from the soluble fraction, S200 SEC (70 min and 55 min peaks); not shown: His6, N-terminal, kept
[2]
  stoichiometry N: 4

B3: human SepSecS Tyr334Cys variant (enzyme)
chain: B1 chain with Y334C
notes: human SepSecS (SEPSECS) in pQE80 with an N-terminal His-tag, pathogenic variant made by site-directed mutagenesis; Mutation found in patients (PCH2D); also called Y334C; Y334C70; not shown: His6, N-terminal, kept
[3]
  stoichiometry N: 4
